Experimental data published in PMC4265266.
Where “and” joins values, the source holds several entries; their conditions need not be identical. Equal values may be shown once.

Target: FLAG-tagged recombinant human butyrylcholinesterase (^FLAGBChE) (human) (UniProt P06276)
Assay: non-reducing SDS-PAGE with immuno

**Q.** Which stoichiometry N does the source give for “FLAG-tagged recombinant human butyrylcholinesterase (^FLAGBChE) (from UniProt P06276 29-602) (enzyme)” here?
**A.** 2 and 4
